The values below are quoted from earlier work in article PMC9843440.

The target in this data set is IκBα (Homo sapiens) (UniProt P25963).
Sequence of UniProt P25963 (P25963 whole entry): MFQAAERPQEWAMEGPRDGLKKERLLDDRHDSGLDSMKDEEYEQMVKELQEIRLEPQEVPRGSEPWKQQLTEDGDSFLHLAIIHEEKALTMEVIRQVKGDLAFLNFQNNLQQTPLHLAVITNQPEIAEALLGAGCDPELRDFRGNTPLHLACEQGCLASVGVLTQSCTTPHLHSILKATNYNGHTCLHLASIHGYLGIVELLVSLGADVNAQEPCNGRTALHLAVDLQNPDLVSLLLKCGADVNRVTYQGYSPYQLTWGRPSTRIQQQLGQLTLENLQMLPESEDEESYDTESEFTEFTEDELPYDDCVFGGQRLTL

As a reminder, the Kd is the equilibrium constant for the complex coming apart. On to IKKβ (from UniProt O14920), for which the Kd was 56 nM.
